How the values were obtained:
IL-6 [1] = assay: IL-6 secretion by PBMC (ELISA); type: cell-based, human; settings: 24 hours
Procedure: (§1) Primary cultures of human intestinal microvascular endothelial cells (HIMEC) isolated from normal jejunal mucosa/submucosal tissue were prepared as described (Strong et al., Gastroenterology 114:1244-1256 (1998)). The HIMEC were cultured in fibronectin-coated plasticware in MCDB medium (Sigma) supplemented with 20% FBS, 90 μg/ml heparin and 50 μg/ml endothelial cell growth factor (Sigma). T-24 cells (ATCC Accession No. HTB-4) were cultured in M199 medium supplemented with 10% FBS. PBMC were purified by Ficoll-Paque gradient as described (Current Protocols in Immunology, pp 7.1.1-7.1.2). Vero cells (ATCC Accession No. CCL-81) were grown in RPMI medium with 5% Nu serum and infected with the Silvio X-10/4 of T. cruzi as described previously (Chuenkova et al., J. Exp. Med. 181:1693-1703 (1995)).
(§2) Endothelial cells and T-24 cells were plated on 24-well plates at a density of 1×10^3 cells/well, while peripheral blood mononuclear cells (PBMC) were plated in the similar wells at 1×10^6/well. Triplicat cultures of cells were incubated test agents for a predetermined amount of time. […] Cytokines and chemokines released in the culture supernatants were measured by ELISA assay following the instructions of the manufacturer (Endogen). The cytokines tested were IL-1β, IL-4, IL-8, […], IL-12, IFN-γ, TNF-α, and the chemokines RANTES and MCP-1. Negative controls were cells incubated in medium containing polymixin B at 10 μg/ml, and positive controls were cells incubated with bacterial LPS at the low ng/ml range (for PBMC or HIMEC) or in the μg/ml range for carcinoma T-24 cells. In some experiments, IL-1β or TNFα were used as positive control for cytokine release.
TR peptides (Table 2) were synthesized at the Tufts Synthesis Facility (Boston, Mass.). Each peptide was purified by HPLC, and the number of amino acids and molecular weight of each peptide verified by mass spectrometry. Peptides were dissolved in growth medium (10% FCS in RPMI) and added at various concentrations to 1×10^6 PBMC/well in 24-well plates. After 24 hours, IL-6 was assayed by ELISA in the conditioned supernatants.

IL-6 [2] = assay: IL-6 secretion by T-24 carcinoma cells (ELISA); type: cell-based, human; settings: 24 hours
Procedure: as §1, §2

Trans-sialidase assay = type: biochemical
Procedure: The trans-sialidase assay was performed as described (Scudder, P. et al., J. Biol. Chem., 268:9886-9891 (1993)) with slight modifications. Various amounts of intact enzyme or enzyme fragments were added to 50 mM PBS, Ph 7.2, containing 15% fetal calf serum and […] of [^14C]N-acetyllactosamine (4×10^5 dpm), 50 μg BSA and 0.02% NaN3 in a volume of 60 μl. After incubation for a predetermined amount of time at room temperature, the reaction mixture was diluted to 1.0 ml with distilled water and applied to a column containing 1.0 ml Q-Sepharose equilibrated with water. Sialylated product was eluted with 1 M NaCl and quantified by scintillation counting.
TS enzymatic activity was measured by the sialylation of the acceptor ^14C-labeled N-acetyllactosamine on anion exchange resins (Scudder, P. et al., J. Biol. Chem. 268:9886-9891 (1993)). Recombinant TSA-1, was expressed on insect sf9 cells and purified from serum-free medium by ion exchange chromatography (monoQ) and preparative SDS-PAGE (Wrightsman, R. A. et al., J. Immunol., 153:3148-3154 (1994).

B1: TS-154: recombinant catalytically active trans-sialidase construct with 5 tandem repeat units (protein, listed as Trypanosoma cruzi)
chain: KKKQVFSKIFYSEDEGKTWKFGEGRSDFGCSEPVALEWEGKLIINTRVDYRRRLVYESSDMGNSWVEAVGTLSRVWGPSPKSNQPGSQSSFTAVTIEGMRVMLFTHPLNFKGRWLRDRLNLWLTDNQRIYNVGQVSIGDENSAYSSVLYKDDKLYCLHEINSNEVYSLVFARLVGELRIIKSVLQSWKNWDSHLSSICTP
- IL-6 secretion by PBMC (IL-6 [1]): as powerful as enzymatically-inactive TS-H32 in stimulating IL-6 secretion
- IL-6 secretion by T-24 cells (IL-6 [2]): as powerful as enzymatically-inactive TS-H32 in stimulating IL-6 secretion
- trans-sialidase (enzymatic) activity (Trans-sialidase assay): enzymatically-active
